Results taken from the supplement of paper PMC10724198.
± gives the standard deviation of the averaged measurements.

test system: Saccharomyces cerevisiae; experiment: protein stability index of tFT-peptide fusion (C-terminal peptide) (PSI (0-1 scale)); higher = more stable (slower turnover); conditions: genetic background: wild type; temperature: 30 C
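Further: PSI is a weighted mean of sequencing reads over stability bins, variants kept only with over 10 reads, mCherry proximal and sfGFP distal, peptide attached via GGGS linker.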

GLGVPCDFRVVA and HRVNKKNCEEKT are within error of each other in protein stability index: 0.694 ± 0.013 for the first, 0.631 ± 0.053 for the second.

Going from RVTLWDGSRSRI to LPPLAACAPSAV, the protein stability index falls from 0.711 ± 0.017 to 0.615 ± 0.051.

PAISPPSPPPLP and GGARGDEGGGSA are within error of each other in protein stability index: 0.685 ± 0.047 for the first, 0.761 ± 0.055 for the second.

GGPGWGVSGWEG and PQSCNILRGLES are within error of each other in protein stability index: 0.705 ± 0.015 for the first, 0.708 ± 0.056 for the second.

First: TAGVQSGCTRII
Second: VTFPSAHSSRRF
The protein stability index of the first is lower: 0.618 ± 0.052 for the first, 0.71635 ± 0.00041 for the second.

PMMTKDEFNNRM and RVSVGGSVRLFG are within error of each other in protein stability index: 0.702 ± 0.015 for the first, 0.711 ± 0.04 for the second.

Compared with AYAPPSALPYPF, PLGDIRPSPRDS is lower in protein stability index: 0.729 ± 0.0075 for the first, 0.681 ± 0.0086 for the second.

LTSSYSLCFLAP and PPPSSAPPPTPP are within error of each other in protein stability index: 0.696 ± 0.011 for the first, 0.607 ± 0.15 for the second.

First: ILCLPFSVSSPS
Second: KIKNNKNKKKKS
The protein stability index of the first is lower: 0.61579 ± 0.00015 for the first, 0.693 ± 0.01 for the second.

VGVSGEGFSWVG and HKNPQKEVIAKT are within error of each other in protein stability index: 0.675 ± 0.021 for the first, 0.744 ± 0.058 for the second.

Going from AAASWRVRIGRG to FRPCLRCLVSPF, the protein stability index falls from 0.7425 ± 0.004 to 0.6358 ± 0.0063.

VPCSIQWNLDEL and TKRGQMLYQDKE are within error of each other in protein stability index: 0.673 ± 0.055 for the first, 0.741 ± 0.1 for the second.

Going from LSEFFLSAFLSC to SATRLGLGLCWV, the protein stability index falls from 0.712 ± 0.011 to 0.6383 ± 0.0039.

Going from YSPSCPRTSPLL to SSPEYIRNIQRS, the protein stability index falls from 0.726 ± 0.046 to 0.62 ± 0.029.

TFSPRLRPPPPP and PHSTTGPPPPLT are within error of each other in protein stability index: 0.7078 ± 0.0041 for the first, 0.695 ± 0.041 for the second.

GSVCVGGFGFFG and PLSPPPVNIPPT are within error of each other in protein stability index: 0.657 ± 0.039 for the first, 0.733 ± 0.039 for the second.

First: GCWAGLGAPGVS
Second: PVPPTPPHPGPL
The protein stability index of the first is higher: 0.71 ± 0.027 for the first, 0.617 ± 0.059 for the second.

Going from GGGGGGRLEGGA to APPPSVCPRFPI, the protein stability index rises from 0.66 ± 0.07 to 0.796 ± 0.012.

Going from AVLERGLCCGEY to SGAVVIPCTFER, the protein stability index falls from 0.738 ± 0.031 to 0.669 ± 0.025.

LLAGGDVSGVGV and YQVTEEKLIMTQ are within error of each other in protein stability index: 0.695 ± 0.015 for the first, 0.674 ± 0.036 for the second.

IQLQSNGLYSKK and GMGESGAGMVGW are within error of each other in protein stability index: 0.665 ± 0.065 for the first, 0.727 ± 0.013 for the second.

GKVGSLGLVLSP and TARGAAARSSQL are within error of each other in protein stability index: 0.682 ± 0.096 for the first, 0.747 ± 0.071 for the second.

KGGSVNRLSQVR and ISVPNPTRPDHP are within error of each other in protein stability index: 0.6713 ± 0.00097 for the first, 0.665 ± 0.063 for the second.

First: PSPPYLIPHALS
Second: LMRFFSCTLSFE
The protein stability index of the first is higher: 0.676 ± 0.041 for the first, 0.62535 ± 0.00026 for the second.

GCEGGWLGEGIG and PLPTSMNTHALV are within error of each other in protein stability index: 0.593 ± 0.014 for the first, 0.683 ± 0.079 for the second.

YSLIPLSSISQH and FRCSLLGGYTLE are within error of each other in protein stability index: 0.685 ± 0.074 for the first, 0.737 ± 0.092 for the second.

PPHSSPPPPPPS and GGGGEVRAWGLR are within error of each other in protein stability index: 0.715 ± 0.028 for the first, 0.71 ± 0.032 for the second.

LASLVANSRNSL and PLPPLPPPFLPP are within error of each other in protein stability index: 0.798 ± 0.27 for the first, 0.641 ± 0.1 for the second.

SRVAEIERVQWL and YVSYVFDYEVRH are within error of each other in protein stability index: 0.655 ± 0.038 for the first, 0.709 ± 0.051 for the second.

Compared with PPPRTPPDNHPN, LCPWRYAVLFSP is lower in protein stability index: 0.7256 ± 0.0047 for the first, 0.645 ± 0.068 for the second.

Going from RRGLRVTETPVR to NNKSNKKKERKE, the protein stability index falls from 0.772 ± 0.011 to 0.698 ± 0.053.

First: RTPYFGPLAQIA
Second: RFPSLCVPFLFP
The protein stability index of the first is lower: 0.622 ± 0.023 for the first, 0.678 ± 0.013 for the second.

Compared with PANASAEGDTSP, VGKGALHCLPDL is higher in protein stability index: 0.682 ± 0.0082 for the first, 0.713 ± 0.0015 for the second.

Going from RSRKICYREEKR to SPPPSPPPPLPP, the protein stability index falls from 0.644 ± 0.029 to 0.5649 ± 0.0049.

PSRPPRLPPASF and RRFPYGPFDFSI are within error of each other in protein stability index: 0.681 ± 0.046 for the first, 0.6645 ± 0.0049 for the second.

SADILGLPRYLT and MGWGALGARGLV are within error of each other in protein stability index: 0.656 ± 0.023 for the first, 0.683 ± 0.029 for the second.

EGGGAGGLMRPE and GCVGGWCGGSGA are within error of each other in protein stability index: 0.65 ± 0.016 for the first, 0.698 ± 0.083 for the second.

Going from CFIPLCPLSFCI to KIKKKRKQKGKQ, the protein stability index rises from 0.609 ± 0.016 to 0.722 ± 0.046.

LLPPPPTPDPGP and NTTIQLWVERRQ are within error of each other in protein stability index: 0.645 ± 0.0067 for the first, 0.679 ± 0.063 for the second.

First: AWRGGSRKDVEG
Second: HYLHRDSLLRWL
The protein stability index of the first is higher: 0.7129 ± 0.001 for the first, 0.6182 ± 0.0033 for the second.

GPPFPPLPLPPP and AGTCVSVGVHRY are within error of each other in protein stability index: 0.658 ± 0.079 for the first, 0.599 ± 0.051 for the second.

First: TPSNTRPTLHIP
Second: PGPATKAPLRTL
The protein stability index of the first is lower: 0.6404 ± 0.0011 for the first, 0.671 ± 0.018 for the second.

Compared with PPHRPPTRPRPR, GGWGCGGWGFVG is lower in protein stability index: 0.64 ± 0.0094 for the first, 0.58568 ± 0.00052 for the second.

TQLNATVSWTEK and HRPSPLPPRVPL are within error of each other in protein stability index: 0.665 ± 0.014 for the first, 0.673 ± 0.033 for the second.

Going from RAFDWFFIFGWC to YNSRKQKKREKK, the protein stability index rises from 0.636 ± 0.04 to 0.706 ± 0.027.

Going from PPPAPPPAIPHP to KKKKKKTKNEIK, the protein stability index falls from 0.687 ± 0.0073 to 0.643 ± 0.016.

Going from LRRTMRLASASF to RKKNVYGKKIKI, the protein stability index falls from 0.831 ± 0.014 to 0.656 ± 0.083.

Going from VIRGVVPVVRSV to ARPLPPSLPPPP, the protein stability index rises from 0.668 ± 0.037 to 0.7356 ± 0.0046.

GLGVSLLVGGEA and GVVSSSIFDLWS are within error of each other in protein stability index: 0.6572 ± 0.0028 for the first, 0.746 ± 0.12 for the second.

SPPRHPPPASPA and LSTTQSKTLNPR are within error of each other in protein stability index: 0.7128 ± 0.0035 for the first, 0.682 ± 0.052 for the second.

In the case of PLSPSFPPLSPP, the protein stability index is reported as 0.78 ± 0.12.
